Values belong to the substance of their own block, whether it stands above or below them.
How the values were obtained:
[1] = target: PEX38_(65–134) (T. brucei); assay: ITC; titration of PEX38 with PEX19; technical triplicates
[2] = target: TbPEX38 (65-134) (T. brucei); assay: ITC; 40 µM TbPEX38 titrated with 440 µM TbPEX19; triplicates; 25°C; 20 mM Tris pH 7.5, 50 mM NaCl; one-site binding model; MicroCal PEAQ-ITC
[3] = target: PEX19-His, full-length (T. brucei); assay: AlphaScreen or HTRF
[4] = target: PEX19-His, full-length (T. brucei); assay: AlphaScreen or HTRF; AlphaScreen displacement assay: equimolar PEX19-His and GST-PEX3Δ1-44 (30 nM), increasing amounts of untagged PEX38
[5] = target: PEX19-His 1 to 50 (T. brucei); assay: AlphaScreen or HTRF

Substance: PEX19_(1–50) with a C-terminal SGGY extension (domain or fragment)
Kd [1]: 3 µM

Substance: TbPEX19 (1-50-SGGY) (domain or fragment)
Kd [2]: 2.89 µM

Substance: PEX38_(65–134) (domain or fragment)
IC50 [4]: 0.446 µM

Substance: untagged PEX38, full-length (natural protein)
IC50 [4]: 0.95 µM

Second part, the substance after the results:

other [3]: 30 fold
Substance: GST-PEX3Δ1-44 (domain or fragment)

other [5]: 10 fold
Substance: GST-PEX38, full-length (natural protein)
